We go through 1 sequence from PMC3247736.

This data set deals with IgM (human). Description: QCM. As to conditions: 500 mg/L IgM vs 100 ug/L IgE; 5'-biotin; 8.1 mM Na2HPO4, 1.1 mM KH2PO4, 1 mM MgCl2, 2.7 mM KCl, 138 mM NaCl, pH 7.4, 37 C; BSA-blocked avidin-coated gold crystal.

“GGGGCACGTTTATCCGTCCCTCCTAGTGGCGTGCCCC [D17.4 anti-IgE aptamer]”: the binding signal (% of IgE response) was under 5.
